{"source": "patent US20140274800A1", "about": "“TRANSCRIPTION FACTOR DECOYS FOR THE TREATMENT AND PREVENTION OF INFECTIONS CAUSED BY BACTERIA INCLUDING CLOSTRIDIUM DIFFICILE” (PROCARTA BIOSYSTEMS LTD., priority 2013, published 2014)", "molecules": {"B1": {"name": "TcdR TFD: dumbbell TFD from TcdRDB1/TcdRDB2 with TcdR recognition site, delivered in compound 7—12 nanoparticles (nucleic acid)", "chain 1": "CTTGGTTTTTCCAAGAAGTTTACAAAATTATATTAGAATAACTTTTTATT", "chain 2": "CCCTCTTTTTGAGGGAATAAAAAGTTATTCTAATATAATTTTGTAAACTT", "modifications": "dumbbell, delivered in nanoparticles, chemistry not fully specified", "notes": "dumbbell TFD from TcdRDB1/TcdRDB2 with TcdR recognition site, delivered in compound 7—12 nanoparticles"}, "B2": {"name": "Spo0A TFD: dumbbell TFD from Spo0ADB1/Spo0ADB2 with Spo0A binding site, delivered in compound 7—12 nanoparticles (nucleic acid)", "chain 1": "CTTGGTTTTTCCAAGAGCTTGTGTAGAAGGTTGTCCACAAGTTGTGAAATTTGTCGAAAAGCTATTTATC", "chain 2": "CCCTCTTTTTGAGGGGATAAATAGCTTTTCGACAAATTTCACAACTTGTGGACAACCTTCTACACAAGCT", "modifications": "dumbbell decoy delivered in nanoparticles, further chemistry not given here"}, "B3": {"name": "FapR TFD: dumbbell TFD from FapRDB1/FapRDB2 with FapR recognition site, delivered in compound 7—12 nanoparticles (nucleic acid)", "chain 1": "CTTGGTTTTTCCAAGTAGAATTAGTACCTGATACTAATAATT", "chain 2": "GCCTCTTTTTGAGGCAATTATTAGTATCAGGTACTAATTCTA", "modifications": "nanoparticle delivery, chemistry not fully specified", "notes": "dumbbell TFD from FapRDB1/FapRDB2 with FapR recognition site, delivered in compound 7—12 nanoparticles"}, "B4": {"name": "SigH TFD: dumbbell TFD from SigH DB1/DB2 with binding sites for both Spo0A and SigH, delivered in compound 7—12 nanoparticles (nucleic acid)", "chain 1": "CTTGGTTTTTCCAAGTAATACGACAAACTAGTTAAATTTCATTGAAGGAATAAAAATATAATTATAGAATTGATTA", "chain 2": "GCCTCTTTTTGAGGCTAATCAATTCTATAATTATATTTTTATTCCTTCAATGAAATTTAACTAGTTTGTCGTATTA", "modifications": "dumbbell decoy delivered in nanoparticles, further chemistry not given here"}}, "key": {"[1]": {"conditions": "cited from earlier work"}, "[2]": {"conditions": "elevated salt, dilution, extended storage; cited from earlier work"}, "[3]": {"system": "Toxins A and B (encoded by tcdAB) in C. difficile", "assay": "Premier ToxinA&B ELISA of toxin production", "format": "cell-based, Clostridium difficile", "conditions": "FIG. 5", "method": "A commercially available ELISA kit (Enzyme-Linked Immunosorbent Assay), Premier™ ToxinA&B, was obtained from Meridian Bioscience Inc. All assays were performed following manufacturers instructions.\n(§1) Conditions of cell growth were as described in Example 1, with care being taken to ensure that the experimental culture consisted of early-exponential vegetative cells that would enter stationary phase during the course of the experiment. Toxin production is developmentally controlled and only beings to occur as cells enter this phase.\nThe absorbance of the cells was used to assay an equal amount of biomaterial in each experiment using the described ELISA kit. […] This was set at 100% activity and all other samples were compared to this (FIG. 5). […] At 48 h, where maximal production is expected, only 22% of the untreated level of production was achieved. The maximum level of production for the treated cells was 32% at 72 h."}, "C. difficile [4]": {"system": "C. difficile", "assay": "Cell growth by Optical Density at 600 nm (Example 2)", "format": "cell-based, Clostridium difficile", "conditions": "OD 600 nm; FIG. 4", "method": "as §1\nOptical Density was measured at 600 nm in a standard spectrophotometer quantified cell growth."}, "C. difficile Strain 630": {"system": "C. difficile Strain 630", "assay": "Bioassay to measure sporulation (spore and total cell CFU/ml)", "format": "cell-based, Clostridium difficile", "method": "All procedures were performed under anaerobic conditions at room temperature unless otherwise stated. All media and agar plates used were placed in an anaerobic chamber at least 24 hours prior to use. A standard bioassay to measure sporulation was performed using untreated cells, those mixed with nanoparticles consisting of either the Spo0A TFD or empty nanoparticles (containing no TFDs), to determine the effect on C. difficile Strain 630 (a laboratory reference strain that has been sequenced).\nAn initial overnight culture was generated by mixing 100 μl of a glycerol stock of C. difficile (consisting of spore cells of frozen in 10% glycerol and stored at −20° C.) with 10 ml Robertson's Cooked Meat Medium (Robertson (1916) J. Path. Bacteria 20: 327-349). The following day, 10 ml BHIS media (Brain Heart Infusion media, (McFaddin J. F. (1985) Media for Isolation-Cultivation-Identification-Maintenance of medical Bacteria, Vol. I, Williams and Wilkins, Baltimore) supplemented with 0.1% L-cysteine) was inoculated with 1% of the culture grown in Robertson's (consisting mostly of spore cells). […] 100 μl of this culture was used to inoculate 10 ml of BHIS which was allowed to grow until it had reached an OD600 of approximately 0.3. At this stage the growth is due to germination of spores and consists mainly of exponentially growing vegetative cells. This culture was then used to inoculate the experimental cultures that were performed in triplicate in 10 ml cultures in BHIS incubated at 37° C. The three conditions used were: A) untreated cells; B) treated with 1% (v/v) empty nanoparticles to give a final concentration of 8 μg/ml compound 7—12; C) nanoparticles loaded with Spo0A TFD to give final concentrations of 8 μg/ml compound 7—12 and 0.4 μg/ml TFD.\nAliquots were withdrawn from the cultures at TO, 24, 48, 72 and 96 h and used to calculate the total cell density and spore cell density.\nCalculation of Spore Cell Density To measure the number of Colony Forming Units per ml of culture (CFU/ml) of spore cells, a 0.5 ml aliquot was withdrawn and exposed to anaerobic conditions for 25 minutes at 60° C. This heat shock step efficiently kills the vegetative cells but not the spores. A serial dilution of the treated sample was prepared in PBS buffer (Phosphate Buffered Saline) over a range of 10^−1 to 10^−6. 10 μl of each dilution was spotted in duplication onto BHIS plates supplemented with 0.1% taurocholate (which enhances germination), the spots allowed to dry and the plates incubated for 24 h at 37° C. The number of colonies was then counted and the CFU/ml of original culture calculated.\nTo measure CFU/ml of total cells, meaning vegetative cells plus spore cells, a 0.5 ml aliquot was withdrawn and exposed to anaerobic conditions for 25 minutes at room temperature (to control for the time taken to heat shock the spore sample). The samples were then processed as described above."}, "C. difficile [5]": {"system": "C. difficile", "assay": "Cell growth by Optical Density at 420 nm (Example 3)", "format": "cell-based, Clostridium difficile", "conditions": "absorbance 420 nm, over the time course; FIG. 6", "method": "Optical Density was measured at 420 nm in a standard spectrophotometer quantified cell growth."}, "C. difficile [6]": {"system": "C. difficile", "assay": "Minimum Inhibitory Concentration (MIC) method", "conditions": "with reference to the compound 7—12 component; 24-well plates, 2 ml BHIS; 1 nM SigH TFD in the loaded nanoparticle; FIG. 7", "quoted_text": "Growth was determined by the Minimum Inhibitory Concentration (MIC) method (Wiegand (2008) Nature Protocols 3: 163-175). Essentially, the antibiotic is diluted to the point where it is ineffective and is no longer able to prevent growth, as judged by the media remaining clear. For C. difficile, these experiments were performed in duplicate in 24-well cell plates containing 2 ml BHIS media with various concentrations of empty nanoparticles or those loaded with the SigH TFD."}}, "note": "“Also recorded” adds a separate entry of the source."}
{"molecule": "Nc1c2c([n+](CCCCCCCCCC[n+]3c4c(c(N)c5ccccc53)CCCC4)c3ccccc13)CCCC2.[Cl-].[Cl-]", "note": "[Compound 7, 10,10′-(decane-1,10-diyl)bis(9-amino-1,2,3,4-tetrahydroacridinium)dichloride]", "values": [{"measurement": "in vitro toxicity relative to dequalinium", "setting": "[1]", "result": "lower toxicity in vitro compared to dequalinium; also recorded: less in vitro toxicity than dequalinium"}, {"measurement": "stability of complexes formed", "setting": "[2]", "result": "forms more stable complexes"}]}
{"molecule": "B1", "values": [{"measurement": "toxin production, % of untreated level", "setting": "[3]; at 48 h, untreated cells at 48 h set at 100%", "result": 22, "unit": "%"}, {"measurement": "maximum level of toxin production, % of untreated 48 h level", "setting": "[3]; at 72 h, untreated cells at 48 h set at 100%", "result": 32, "unit": "%"}, {"measurement": "pattern of Toxins production (in words)", "setting": "[3]; time course", "result": "produces much less of the Toxins"}, {"measurement": "cell growth (growth curves, in words)", "setting": "C. difficile [4]", "result": "failed to grow in a manner similar to untreated cells"}]}
{"molecule": "B2", "values": [{"measurement": "density of spores", "setting": "C. difficile Strain 630; after heat shock 25 minutes at 60° C., 8 μg/ml compound 7—12 and 0.4 μg/ml TFD, FIG. 3", "result": "1.54×10^2 CFU/ml"}, {"measurement": "effect on sporulation (in words)", "setting": "C. difficile Strain 630; delivery to cells with nanoparticles, Example 1", "result": "strong inhibition of sporulation"}, {"measurement": "spores as percentage of total cells", "setting": "C. difficile Strain 630; treated samples, FIG. 3", "result": "< 8.66×10^−5%"}, {"measurement": "reduction of sporulation relative to untreated culture", "setting": "C. difficile Strain 630; treated versus untreated, FIG. 3", "result": "six-fold"}, {"measurement": "density of total cells", "setting": "C. difficile Strain 630; vegetative cells plus spore cells, nanoparticles giving 8 μg/ml compound 7—12 and 0.4 μg/ml TFD, BHIS, 37° C., FIG. 3", "result": "1.78×10^8 CFU/ml"}]}
{"molecule": "B3", "values": [{"measurement": "cell growth (growth curves, in words)", "setting": "C. difficile [5]", "result": "failed to grow over the time course of the experiment"}]}
{"molecule": "B4", "values": [{"measurement": "effect on sporulation (in words)", "setting": "C. difficile Strain 630; time course similar to Example 1, FIG. 8", "result": "block sporulation significantly"}, {"measurement": "MIC", "setting": "C. difficile [6]", "result": 3.4, "unit": "nM"}]}
